Consider 6 substances from the supplement of paper PMC5998384.

In data set [1] the test system is HeLa Kyoto. The experiment in a line: solubility change mitosis vs G1/S (difference of NP-40 vs SDS log2 ratios) (log2 ratio difference); higher = more soluble in mitosis.
Data set [2] deals with HeLa Kyoto. The experiment in a line: thermal stability score vs G1/S (z-score of summed log2 fold changes over temperatures); higher = more thermally stable than in G1/S.
Data set [3] deals with HeLa Kyoto. The experiment in a line: melting temperature (median over replicates), in situ; higher = more thermally stable.
Data set [4] concerns HeLa Kyoto. The experiment in a line: solubility in G1/S (NP-40 vs SDS abundance) (log2 ratio); higher = more soluble. Particulars: cell cycle stage: G1/S.
Where [5] appears, read: cell cycle stage: early G1 (4.5 h after nocodazole release).
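For melting temperature (median over replicates), in situ in this document: HeLa Kyoto cells synchronized by double thymidine or nocodazole block, proteins quantified by TMT10plex mass spectrometry, three independent biological replicates.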
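For solubility change mitosis vs G1/S (difference of NP-40 vs SDS log2 ratios) in this document: synchronized HeLa Kyoto cells (double thymidine block for G1/S, nocodazole release for mitosis), protein amounts in NP-40 versus SDS lysates quantified by mass spectrometry, three biological replicates.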
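For solubility in G1/S (NP-40 vs SDS abundance) in this document: HeLa Kyoto cells arrested at G1/S by double thymidine block, proteins quantified by TMT10plex mass spectrometry in mild NP-40 versus SDS extracts, three biological replicates.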
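For thermal stability score vs G1/S (z-score of summed log2 fold changes over temperatures) in this document: synchronized HeLa Kyoto cells, proteins quantified by TMT10plex mass spectrometry, three biological replicates, mitosis taken 0.5 h after nocodazole release, G1/S directly after double thymidine block.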

Consider “MRRLGPFHPRVHWAAPPSLSSGLHRLLFLRGTRIPSSTTLSPPRHDSLSLDGGTVNPPRVREPTGREAFGPSPASSDWLPARWRNGRGGRPRARLCSGWTAAEEARRNPTLGGLLGRQRLLLRMGGGRLGAPMERHGRASATSVSSAGEQAAGDPEGRRQEPLRRRASSASVPAVGASAEGTRRDRLGSYSGPTSVSRQRVESLRKKRPLFPWFGLDIGGTLVKLVYFEPKDITAEEEEEEVESLKSIRKYLTSNVAYGSTGIRDVHLELKDLTLCGRKGNLHFIRFPTHDMPAFIQMGRDKNFSSLHTVFCATGGGAYKFEQDFLTIGDLQLCKLDELDCLIKGILYIDSVGFNGRSQCYYFENPADSEKCQKLPFDLKNPYPLLLVNIGSGVSILAVYSKDNYKRVTGTSLGGGTFFGLCCLLTGCTTFEEALEMASRGDSTKVDKLVRDIYGGDYERFGLPGWAVASSFGNMMSKEKREAVSKEDLARATLITITNNIGSIARMCALNENINQVVFVGNFLRINTIAMRLLAYALDYWSKGQLKALFSEHEGYFGAVGALLELLKIP [PANK2]”, for which, in the data set on HeLa Kyoto [1], the “solubility change mitosis (log2)” value was -0.196. The thermal stability score with HeLa Kyoto [2] (setting [5]) was 0.0148; with HeLa Kyoto [2] (cell cycle stage: mitosis), 0.653. The melting temperature was 53.1 °C in the data set with HeLa Kyoto [3] (cell cycle stage: G1/S) and 55.1 °C with HeLa Kyoto [3] (cell cycle stage: mitosis). Further, the “solubility in G1/S (log2)” value in the data set on HeLa Kyoto [4] is 0.04.
For the substance CENPF, the “solubility change mitosis (log2)” value in the data set on HeLa Kyoto [1] amounted to 0.109. The thermal stability score worked out at 2.12 in the data set on HeLa Kyoto [2] (setting [5]) and 0.418 in the data set on HeLa Kyoto [2] (cell cycle stage: mitosis). Besides, the melting temperature stood at 48.9 °C in the data set on HeLa Kyoto [3] (cell cycle stage: G1/S) and 49.7 °C in the data set on HeLa Kyoto [3] (cell cycle stage: mitosis). Besides, the “solubility in G1/S (log2)” value with HeLa Kyoto [4] is -0.00455.
Consider “MPGHLQEGFGCVVTNRFDQLFDDESDPFEVLKAAENKKKEAGGGGVGGPGAKSAAQAAAQTNSNAAGKQLRKESQKDRKNPLPPSVGVVDKKEETQPPVALKKEGIRRVGRRPDQQLQGEGKIIDRRPERRPPRERRFEKPLEEKGEGGEFSVDRPIIDRPIRGRGGLGRGRGGRGRGMGRGDGFDSRGKREFDRHSGSDRSSFSHYSGLKHEDKRGGSGSHNWGTVKDELTESPKYIQKQISYNYSDLDQSNVTEETPEGEEHHPVADTENKENEVEEVKEEGPKEMTLDEWKAIQNKDRAKVEFNIRKPNEGADGQWKKGFVLHKSKSEEAHAEDSVMDHHFRKPANDITSQLEINFGDLGRPGRGGRGGRGGRGRGGRPNRGSRTDKSSASAPDVDDPEAFPALA [SERBP1]”, for which the “solubility change mitosis (log2)” value with HeLa Kyoto [1] worked out at 0.395. Further, the thermal stability score in the data set with HeLa Kyoto [2] (setting [5]) was -1.78; with HeLa Kyoto [2] (cell cycle stage: mitosis), -8.72. The melting temperature in the data set with HeLa Kyoto [3] (cell cycle stage: G1/S) stood at 58.8 °C. Besides, in the data set on HeLa Kyoto [4], the “solubility in G1/S (log2)” value was -0.123.
For PARP4, the “solubility change mitosis (log2)” value in the data set with HeLa Kyoto [1] was -0.107. For the same substance, the thermal stability score in the data set with HeLa Kyoto [2] (setting [5]) is 1.67; in the data set with HeLa Kyoto [2] (cell cycle stage: mitosis), 0.026. Also, the results for the melting temperature in the data set on HeLa Kyoto [3] (cell cycle stage: G1/S) and in the data set on HeLa Kyoto [3] (cell cycle stage: mitosis) were 50.7 °C and 49.8 °C, respectively. For the same substance, the “solubility in G1/S (log2)” value with HeLa Kyoto [4] was -0.0707.
For the substance “MKLNVDGLLVYFPYDYIYPEQFSYMRELKRTLDAKGHGVLEMPSGTGKTVSLLALIMAYQRAYPLEVTKLIYCSRTVPEIEKVIEELRKLLNFYEKQEGEKLPFLGLALSSRKNLCIHPEVTPLRFGKDVDGKCHSLTASYVRAQYQHDTSLPHCRFYEEFDAHGREVPLPAGIYNLDDLKALGRRQGWCPYFLARYSILHANVVVYSYHYLLDPKIADLVSKELARKAVVVFDEAHNIDNVCIDSMSVNLTRRTLDRCQGNLETLQKTVLRIKETDEQRLRDEYRRLVEGLREASAARETDAHLANPVLPDEVLQEAVPGSIRTAEHFLGFLRRLLEYVKWRLRVQHVVQESPPAFLSGLAQRVCIQRKPLRFCAERLRSLLHTLEITDLADFSPLTLLANFATLVSTYAKGFTIIIEPFDDRTPTIANPILHFSCMDASLAIKPVFERFQSVIITSGTLSPLDIYPKILDFHPVTMATFTMTLARVCLCPMIIGRGNDQVAISSKFETREDIAVIRNYGNLLLEMSAVVPDGIVAFFTSYQYMESTVASWYEQGILENIQRNKLLFIETQDGAETSVALEKYQEACENGRGAILLSVARGKVSEGIDFVHHYGRAVIMFGVPYVYTQSRILKARLEYLRDQFQIRENDFLTFDAMRHAAQCVGRAIRGKTDYGLMVFADKRFARGDKRGKLPRWIQEHLTDANLNLTVDEGVQVAKYFLRQMAQPFHREDQLGLSLLSLEQLESEETLKRIEQIAQQL [ERCC2]”, the “solubility change mitosis (log2)” value in the data set with HeLa Kyoto [1] was -0.0825. Besides, the thermal stability score in the data set with HeLa Kyoto [2] (setting [5]) turned out to be 1; with HeLa Kyoto [2] (cell cycle stage: mitosis) it was 2.34. Also, the melting temperature with HeLa Kyoto [3] (cell cycle stage: G1/S) was found to be 48.9 °C; in the data set with HeLa Kyoto [3] (cell cycle stage: mitosis) it was 49.1 °C. Moreover, in the data set with HeLa Kyoto [4], the “solubility in G1/S (log2)” value was -0.193.
“MEVNPPKQEHLLALKVMRLTKPTLFTNIPVTCEEKDLPGDLFNQLMRDDPSTVNGAEVLMLGEMLTLPQNFGNIFLGETFSSYISVHNDSNQVVKDILVKADLQTSSQRLNLSASNAAVAELKPDCCIDDVIHHEVKEIGTHILVCAVSYTTQAGEKMYFRKFFKFQVLKPLDVKTKFYNAESDLSSVTDEVFLEAQIQNMTTSPMFMEKVSLEPSIMYNVTELNSVSQAGECVSTFGSRAYLQPMDTRQYLYCLKPKNEFAEKAGIIKGVTVIGKLDIVWKTNLGERGRLQTSQLQRMAPGYGDVRLSLEAIPDTVNLEEPFHITCKITNCSERTMDLVLEMCNTNSIHWCGISGRQLGKLHPSSSLCLALTLLSSVQGLQSISGLRLTDTFLKRTYEYDDIAQVCVVSSAIKVES [TRAPPC13]”: the “solubility change mitosis (log2)” value in the data set on HeLa Kyoto [1] was -0.173. In addition, the thermal stability score in the data set on HeLa Kyoto [2] (setting [5]) is -0.207; with HeLa Kyoto [2] (cell cycle stage: mitosis), 0.0312. Besides, the melting temperature was 50 °C in the data set with HeLa Kyoto [3] (cell cycle stage: G1/S) and 49.9 °C in the data set on HeLa Kyoto [3] (cell cycle stage: mitosis). The “solubility in G1/S (log2)” value in the data set with HeLa Kyoto [4] was 0.0799.
